Assay results reported in patent US20250011413A1 (MCMASTER UNIVERSITY, published 2025).
Where “and” joins values, the source holds several entries; their conditions need not be identical. Identical values can stand only once.

T1: PF4/heparin complex (human PF4 complexed with heparin) (human, UniProt P02776 32-101)
T1 construct: Multimeric complex of PF4 with heparin (not a protein); In the EIAs: PF4 captured on biotinylated heparin on streptavidin plates; In the SRA: platelets with 0.2 U/mL heparin; also called PF4 and heparin complexes
T1 sequence: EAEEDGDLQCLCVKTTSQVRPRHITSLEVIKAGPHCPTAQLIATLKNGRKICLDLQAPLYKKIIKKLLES

T2: Human PF4 (CXCL4), biotinylated, without heparin (human, UniProt P02776 32-101, biotinylated with EZ-link-Sulfo-NHS-LC-Biotin (sites not given))
T2 construct: Immobilised on streptavidin biosensors for BLI; also called PF4 alone; platelet factor 4
T2 sequence: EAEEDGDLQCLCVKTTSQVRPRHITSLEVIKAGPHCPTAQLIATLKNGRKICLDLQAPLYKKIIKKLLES


Columns and labels:
[1] = target: T1, PF4/heparin complex (human PF4 …); experiment: BLI (Octet), biotinylated PF4/heparin on streptavidin sensors, 1:1 model; scFv at 0.5 µg/mL (response near baseline, software limit value)
Experimental: The Octet-QK Red 96 (FortéBio, Menlo Park, CA) instrumentation was used to conduct all BLI experiments. A 96-well microtiter plate (black, flat-bottom) was used to hold 200 μL per well of either sample or buffer. Pre-coated streptavidin biosensor tips (FortéBio) were hydrated in phosphate buffered saline (PBS) containing 1% bovine serum albumin (BSA, Sigma-Aldrich) before performing all kinetic assays. Each step was performed at an operating temperature of 23° C. with agitation at 1000 rpm. Streptavidin tips were first equilibrated in PBS+1% BSA to establish a baseline. […] The PF4-coated tips were then dipped into PBS+1% BSA for 13 minutes to re-establish a baseline. Tips were then incubated in an analyte solution containing half-fold dilutions of wildtype scFv (4.0, 2.0, 1.0, 0.5, 0.25 μg/mL in PBS+1% BSA) for 10 minutes to measure association. For mutant scFv association, tips were incubated in an analyte solution containing 200 μL of each mutant and wildtype scFv at a final concentration of 1 μg/mL in PBS+1% BSA. Antibody dissociation steps were performed by dipping sensors in wells containing PBS+1% BSA for 56 minutes. The following negative controls included in these kinetic experiments were also measured: 200 μL of buffer to replace both the antigen and scFv and 200 μL buffer replacing scFv only. Each experiment was performed with PF4 or with PF4/heparin as the immobilized antigen. […]

[2] = target: T2, Human PF4 (CXCL4), biotinylated, …; experiment: BLI (Octet), biotinylated PF4 without heparin on streptavidin sensors, 1:1 model; scFv at 0.5 µg/mL
Experimental: (§1) The Octet-QK Red 96 (FortéBio, Menlo Park, CA) instrumentation was used to conduct all BLI experiments. A 96-well microtiter plate (black, flat-bottom) was used to hold 200 μL per well of either sample or buffer. Pre-coated streptavidin biosensor tips (FortéBio) were hydrated in phosphate buffered saline (PBS) containing 1% bovine serum albumin (BSA, Sigma-Aldrich) before performing all kinetic assays. Each step was performed at an operating temperature of 23° C. with agitation at 1000 rpm. Streptavidin tips were first equilibrated in PBS+1% BSA to establish a baseline. […] The PF4-coated tips were then dipped into PBS+1% BSA for 13 minutes to re-establish a baseline. Tips were then incubated in an analyte solution containing half-fold dilutions of wildtype scFv (4.0, 2.0, 1.0, 0.5, 0.25 μg/mL in PBS+1% BSA) for 10 minutes to measure association. For mutant scFv association, tips were incubated in an analyte solution containing 200 μL of each mutant and wildtype scFv at a final concentration of 1 μg/mL in PBS+1% BSA. Antibody dissociation steps were performed by dipping sensors in wells containing PBS+1% BSA for 56 minutes. The following negative controls included in these kinetic experiments were also measured: 200 μL of buffer to replace both the antigen and scFv and 200 μL buffer replacing scFv only. Each experiment was performed with PF4 or with PF4/heparin as the immobilized antigen.
BLI experiments were performed to evaluate binding responses and affinities of wildtype and mutant scFv. Biotinylated PF4 alone or complexed with heparin was immobilized on streptavidin biosensors and used to capture wildtype scFv. Half-fold serial dilutions of wildtype scFv ranging from 0.25 μg/mL to 4 μg/mL were used to determine the optimal concentrations for future experiments PF4 (PF4 FIG. 3; PF4/heparin FIG. 4).

[3] = target: T1, PF4/heparin complex (human PF4 …); experiment: competition EIA, scFv 50 µg/mL; competitor HIT-positive sera antibodies, n=10
[4] = target: T2, Human PF4 (CXCL4), biotinylated, …; experiment: BLI (Octet), biotinylated PF4 without heparin on streptavidin sensors, scFv at 1 µg/mL, 1:1 model, mean ± s.d. [cont.) b]
Experimental: BLI experiments were performed using wildtype scFv, mutant B, mutant C, mutant D, mutant E, and mutant F at 1 μg/mL. Binding was measured against immobilized biotinylated PF4 on streptavidin biosensors. b) Table showing kinetic data of wildtype and mutant scFv, including binding responses and association and dissociation rates. All data was analyzed based on a 1:1 homogenous ligand binding model using Octet® User Software version 3.1.
as §1
BLI experiments were performed to evaluate binding responses and affinities of wildtype and mutant scFv. Biotinylated PF4 alone or complexed with heparin was immobilized on streptavidin biosensors and used to capture wildtype scFv.

[5] = target: T1, PF4/heparin complex (human PF4 …); experiment: competition EIA, scFv 50 µg/mL; competitor HIT-positive sera antibodies, n=10; remark: listed apart in the source
Experimental: (§2) Inhibitory PF4/heparin IgG-specific Streptavidin Enzyme Immunoassay (EIA). The binding activity of wildtype and mutant scFv antibodies to PF4/heparin complexes was measured using an inhibitory PF4/heparin IgG-specific EIA with a streptavidin-biotin capture system. Before performing this protocol, 96-well NUNC Maxisorp plates (ThermoFisher) were coated with 10 μg/mL streptavidin for 24 h. Plates were then blocked with 3% bovine serum albumin (BSA) in phosphate buffered saline (PBS) for 2 h at room temperature. Plates were then coated with 1 U/mL biotinylated-heparin for 1 h followed by 30 μg/mL PF4 for 1 h. Increasing concentrations of wildtype or mutant scFv were added and incubated for 1 hr at room temperature. Without removing wildtype or scFv, HIT patient sera in a 1:50 dilution or full-length KKO (2 μg/mL) was then incubated for 1 h at room temperature. After washing, alkaline phosphatase-conjugated anti-human or anti-mouse IgG (Jackson Immuno Research Laboratories, Inc., West Grove, PA) was added at a 1:4000 dilution and incubated for 1 h temperature. For detection, 1 mg/mL p-nitrophenylphosphate (PNPP, Sigma-Aldrich) substrate dissolved in 1 mol/L diethanolamine (DEA) buffer (pH 9.6) was added. The optical density (OD) was measured at 2 min intervals for 30 min at 405 nm (OD₄₀₅ₙₘ) using a BioTek 800 TS plate reader (BioTek Instruments Inc., Winooski, VT) to determine if anti-PF4/heparin antibody binding was inhibited. Results were reported as a decrease in OD (absorbance at 405 nm) from baseline levels.
Inhibiting HIT-Positive (EIA+/SRA+) HIT-Negative (EIA+/SRA−) antibody binding: Sera (n=10) from confirmed HIT-positive patients (EIA-positive/SRA-positive) containing anti-PF4/heparin antibodies were used in a modified streptavidin-biotin based anti-PF4/heparin IgG EIA (streptavidin anti-PF4/hep EIA) with scFv at 50 μg/mL. On average, antibody binding to PF4/heparin was reduced in the presence of scFv.

[6] = target: T1, PF4/heparin complex (human PF4 …); experiment: competition EIA on PF4/biotinylated heparin, scFv 0-160 µg/mL; competitor full-length KKO 2 µg/mL
Experimental: as §2
To further evaluate the binding of mutant and wildtype scFv, their ability to inhibit full-length KKO from binding PF4/heparin complexes was assessed in a modified streptavidin-capture EIA. Biotinylated heparin was immobilized with PF4 on streptavidin-coated plates and incubated with KKO in the presence of scFv at half-fold serial dilutions from 0 to 160 μg/mL. […] Wildtype scFv and mutant C were unable to inhibit full-length KKO binding at these concentrations and IC50 values for these constructs were not calculated.

Kd [1]	Kd [2]	koff [2]	kon [2]	mean % inhibition of serum antibody binding [3]	koff [4]	kon [4]	mean OD405nm of bound serum IgG (+ scFv) [5]	IC50 [6]	Binder
< 0.001 nM	34.5 nM	0.0037 s⁻¹	107000 M⁻¹ s⁻¹	44.7%	0.00255 s⁻¹	12500 M⁻¹ s⁻¹	0.931 OD405nm		Wildtype scFv (KKO-derived single chain variable fragment) (scFv, VL-(G4S)3 linker-VH; expressed in E. coli BL21 from pADL-22c, purified on Ni-NTA as histidine-tagged scFv, about 28 kDa; also called WT; KKO-scFv; not shown: histidine tag from the pADL-22c vector) scFv: DIQMIQSQKFMSTSVGDRVTVTCKASQNVGTNVAWYQQKPGQSPNALIYSASYRYSGVPDRFTGSGSGTDFTLTITNVQSEDLADYFCQQYNSYPLTFGTGTKLDLKGGGGSGGGGSGGGGSVQLQQSGAELVKPGASVKLSCKASGYTFTNYFIYWVKQRPGQGLEWIGEINPRNGDTDFNEKFESRATLTVDKSSSTAYMQLSSLTSEDSAIYYCTRSPYGNNYGFTYWGQGTLVTVSA
				80%	2.52e-05 s⁻¹	42200 M⁻¹ s⁻¹	0.281 OD405nm	1.3 µg/mL	Mutant F scFv, scFv(E183V, E186K, G223R) (scFv, VL-linker-VH; histidine-tagged, from E. coli BL21; also called Mut F; not shown: histidine tag from the pADL-22c vector) scFv: DIQMIQSQKFMSTSVGDRVTVTCKASQNVGTNVAWYQQKPGQSPNALIYSASYRYSGVPDRFTGSGSGTDFTLTITNVQSEDLADYFCQQYNSYPLTFGTGTKLDLKGGGGSGGGGSGGGGSVQLQQSGAELVKPGASVKLSCKASGYTFTNYFIYWVKQRPGQGLEWIGEINPRNGDTDFNVKFKSRATLTVDKSSSTAYMQLSSLTSEDSAIYYCTRSPYRNNYGFTYWGQGTLVTVSA
				76.5%	0.000124 s⁻¹	69300 M⁻¹ s⁻¹	0.319 OD405nm	293 nM and 8.2 µg/mL	Mutant E scFv, scFv(Y156H, D180G, Q233P) (scFv, VL-linker-VH; histidine-tagged, from E. coli BL21; also called Mut E; not shown: histidine tag from the pADL-22c vector) scFv: DIQMIQSQKFMSTSVGDRVTVTCKASQNVGTNVAWYQQKPGQSPNALIYSASYRYSGVPDRFTGSGSGTDFTLTITNVQSEDLADYFCQQYNSYPLTFGTGTKLDLKGGGGSGGGGSGGGGSVQLQQSGAELVKPGASVKLSCKASGYTFTNYFIHWVKQRPGQGLEWIGEINPKNGDTGFNEKFESRATLTVDKSSSTAYMQLSSLTSEDSAIYYCTRSPYGNNYGFTYWGPGTLVTVSA
				77.8%	5.07e-05 s⁻¹	30200 M⁻¹ s⁻¹	0.275 OD405nm	57.3 nM and 1.6 µg/mL	Mutant B scFv, scFv(R18K, N152K, D180N) (scFv, VL-linker-VH; histidine-tagged, from E. coli BL21; also called Mut B; not shown: histidine tag from the pADL-22c vector) scFv: DIQMIQSQKFMSTSVGDKVTVTCKASQNVGTNVAWYQQKPGQSPNALIYSASYRYSGVPDRFTGSGSGTDFTLTITNVQSEDLADYFCQQYNSYPLTFGTGTKLDLKGGGGSGGGGSGGGGSVQLQQSGAELVKPGASVKLSCKASGYTFTKYFIYWVKQRPGQGLEWIGEINPRNGDTNFNEKFESRATLTVDKSSSTAYMQLSSLTSEDSAIYYCTRSPYGNNYGFTYWGQGTLVTVSA
				78.3%	0.000103 s⁻¹	25700 M⁻¹ s⁻¹	0.283 OD405nm	111 nM and 3.1 µg/mL	Mutant D scFv, scFv(Y156H) (scFv, VL-linker-VH; histidine-tagged, from E. coli BL21; also called Mut D; not shown: histidine tag from the pADL-22c vector) scFv: DIQMIQSQKFMSTSVGDRVTVTCKASQNVGTNVAWYQQKPGQSPNALIYSASYRYSGVPDRFTGSGSGTDFTLTITNVQSEDLADYFCQQYNSYPLTFGTGTKLDLKGGGGSGGGGSGGGGSVQLQQSGAELVKPGASVKLSCKASGYTFTNYFIHWVKQRPGQGLEWIGEINPRNGDTDFNEKFESRATLTVDKSSSTAYMQLSSLTSEDSAIYYCTRSPYGNNYGFTYWGQGTLVTVSA
